# Measurements from patent US20250076311A1 (Chugai, published 2025).
# Substitutions are numbered along the chain they refer to. In names and notes the source's numbering stands. Read-outs that look alike come from different tables or passages of the source.
# T1: cynomolgus monkey FcγRIIIaS extracellular domain with C-terminal His-tag (cynomolgus monkey, UniProt Q8SPW2 21-206 at identity 1.00))
# T1 construct: also called cyno FcgRIIIaS; cynoFcγRIIIaS
# T1 chain: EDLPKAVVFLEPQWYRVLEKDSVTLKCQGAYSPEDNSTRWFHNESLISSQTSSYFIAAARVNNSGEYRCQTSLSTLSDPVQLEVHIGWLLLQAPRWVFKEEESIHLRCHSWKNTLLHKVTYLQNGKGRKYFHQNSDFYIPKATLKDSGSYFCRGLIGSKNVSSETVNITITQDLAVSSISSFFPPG
# T2: human FcγRIIaH extracellular domain with C-terminal His-tag (human, UniProt P12318 34-217)
# T2 construct: also called human FcgRIIaH; FcγRIIa (type H)
# T2 sequence: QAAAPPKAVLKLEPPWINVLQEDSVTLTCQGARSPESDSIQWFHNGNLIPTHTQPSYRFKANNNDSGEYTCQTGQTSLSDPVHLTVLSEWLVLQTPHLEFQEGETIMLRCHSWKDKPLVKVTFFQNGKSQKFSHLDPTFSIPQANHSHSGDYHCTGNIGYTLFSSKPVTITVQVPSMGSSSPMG
# T3: cynomolgus monkey FcγRIIb extracellular domain with C-terminal His-tag (cynomolgus monkey)
# T3 construct: also called cyno FcgRIIb; cynoFcγRIIb
# T3 chain: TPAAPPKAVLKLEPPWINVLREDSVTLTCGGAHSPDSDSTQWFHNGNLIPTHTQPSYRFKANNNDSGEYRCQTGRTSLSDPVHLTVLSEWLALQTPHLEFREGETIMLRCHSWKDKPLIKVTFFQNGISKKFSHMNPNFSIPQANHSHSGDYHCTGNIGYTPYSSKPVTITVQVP
# T4: human FcγRIIaH extracellular domain with C-terminal His-tag (human, UniProt P12318 34-217)
# T4 construct: also called human FcgRIIaH; FcγRIIa (type H)
# T4 sequence: T2 sequence
# T5: human FcγRIIaR extracellular domain with C-terminal His-tag (human, UniProt P12318 34-217)
# T5 construct: also called human FcgRIIaR; FcγRIIa (type R)
# T5 chain: T2 sequence with H134R
# T6: human FcγRIIb extracellular domain with C-terminal His-tag (human, UniProt P31994 43-217)
# T6 construct: also called human FcgRIIb
# T6 sequence: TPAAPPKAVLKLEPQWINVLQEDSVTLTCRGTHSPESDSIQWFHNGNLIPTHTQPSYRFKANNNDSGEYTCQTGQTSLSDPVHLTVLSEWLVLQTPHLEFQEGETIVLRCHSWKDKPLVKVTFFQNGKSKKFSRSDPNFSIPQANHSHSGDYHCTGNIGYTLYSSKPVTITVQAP
# T7: cynomolgus monkey FcγRIIa2 extracellular domain with C-terminal His-tag (cynomolgus monkey)
# T7 construct: also called cyno FcgRIIa2; cynoFcγRIIa2
# T7 chain: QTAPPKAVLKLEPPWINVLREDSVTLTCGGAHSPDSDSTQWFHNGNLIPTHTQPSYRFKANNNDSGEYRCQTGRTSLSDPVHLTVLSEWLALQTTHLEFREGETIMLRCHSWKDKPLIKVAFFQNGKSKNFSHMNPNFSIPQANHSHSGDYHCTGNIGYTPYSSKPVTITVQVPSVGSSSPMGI
# T8: cynomolgus monkey FcγRIIa3 extracellular domain with C-terminal His-tag (cynomolgus monkey)
# T8 construct: also called cyno FcgRIIa3; cynoFcγRIIa3
# T8 chain: T7 chain with K127I, N130K, H133P, Q142R
# T9: cynomolgus monkey FcγRIIb extracellular domain with C-terminal His-tag (cynomolgus monkey)
# T9 construct: also called cyno FcgRIIb; cynoFcγRIIb
# T9 chain: T3 chain
# T10: human FcγRIIaH extracellular domain, His-tagged (human, UniProt P12318 34-217)
# T10 construct: also called human FcγRIIa (type H); FcgRIIaH; not shown: His-tag added to the C-terminus
# T10 sequence: T2 sequence
# T11: cynomolgus monkey FcγRIIa1 extracellular domain with C-terminal His-tag (cynomolgus monkey)
# T11 construct: also called cyno FcgRIIa1; cynoFcγRIIa1
# T11 chain: T7 chain with T95P, A121T, K127I, S128A, N130K, N135D, Q142R
# T12: cynomolgus monkey FcγRIIa2 extracellular domain with C-terminal His-tag (cynomolgus monkey)
# T12 construct: also called cyno FcgRIIa2; cynoFcγRIIa2
# T12 chain: T7 chain
# T13: cynomolgus monkey FcγRIIa1 extracellular domain with C-terminal His-tag (cynomolgus monkey)
# T13 construct: also called cyno FcgRIIa1; cynoFcγRIIa1
# T13 chain: T7 chain with T95P, A121T, K127I, S128A, N130K, N135D, Q142R
# T14: cynomolgus monkey FcγRIIIaS extracellular domain with C-terminal His-tag (cynomolgus monkey, UniProt Q8SPW2 21-206 at identity 1.00))
# T14 construct: also called cyno FcgRIIIaS; cynoFcγRIIIaS
# T14 chain: T1 chain
# T15: cynomolgus monkey FcγRIIa3 extracellular domain with C-terminal His-tag (cynomolgus monkey)
# T15 construct: also called cyno FcgRIIa3; cynoFcγRIIa3
# T15 chain: T7 chain with K127I, N130K, H133P, Q142R
# B1: M103205H795-MY535/M103202L889-SK1 (antibody, human IgG1, kappa, name in EU numbering)
# heavy: QVTLKESGPVLVKPTETLTLTCTVSGIDLSHDDISWVRQAPGKGLEWVGIISYAGSTYYASWAKGRLTISKDTSKNQVVLTMTNMDPVDTATYYCARGVPAYSHGGDLWGQGTLVTVSSASTKGPSVFPLAPSSKSTSGGTAALGCLVKDYFPEPVTVSWNSGALTSGVHTFPAVLQSSGLYSLSSVVTVPSSSLGTQTYICNVNHKPSNTKVDKKVEPKSCDKTHTCPPCPGPEWLTGPSVFLFPPKPKDTLMISRTPEVTCVVVDVSDEDPEVKFNWYVDGVEVHNAKTKPREEQYNSTYRVVSVLTVLHQDWLNGKEYKCKVSNKALPKPIEKTISKAKGQPREPQVYTLPPSREEMTKNQVSLTCLVKGFYPSDIAVEWESNGQPENNYKTTPPVLDSDGSFFLYSKLTVDKSRWQQGNVFSCSVMHEALHNHYTQKSLSLSP
# light: DIVMTQSPATLSLSPGERATLSCTSSQSVYHANWLSWFQQKPGQPPKLLIYWASTLAYGVPSRFSGSGSGTDFTLTISSLQPEDAATYYCAGGYGGGRYAFGQGTKVEIKRTVAAPSVFIFPPSDEQLKSGTASVVCLLNNFYPREAKVQWKVDNALQSGNSQESVTEQDSKDSTYSLSSTLTLSKADYEKHKVYACEVTHQGLSSPVTKSFNRGEC
# notes: copies: 2 + 2
# B2: M103205H795-MY387 / M103202L889-SK1 (antibody, human IgG1, kappa, name in EU numbering)
# heavy: B1 heavy with G233A, W236L, S241V
# light: B1 light
# B3: MS1032LO06-MY201 (antibody, human IgG1, kappa)
# heavy: B1 heavy with G233A, W236L, T238N
# light: B1 light
# notes: also called M103205H795-MY201; copies: 2 + 2
# B4: MS1032LO06-MY205 (antibody, human IgG1, kappa)
# heavy: B1 heavy with G233A, W236L, T238N, Q297L
# light: B1 light
# notes: also called M103205H795-MY205; copies: 2 + 2
# B5: M103205H795-MY321/M103202L889-SK1 (antibody, human IgG1, kappa, name in EU numbering)
# heavy: B1 heavy with G233A, W236L, T238H, P398M
# light: B1 light
# notes: Fc variant made by introducing substitutions into M103205H795-SG1; expressed with M103202L889-SK1 as light chain; Substitution positions are EU numbering
# B6: M103205H795-MY534 / M103202L889-SK1 (antibody, human IgG1, kappa, name in EU numbering)
# heavy: B1 heavy with G233A, W236L, S241V, Q297L
# light: B1 light
# B7: MS1032LO06-PK56 (antibody, human IgG1, kappa)
# heavy: B1 heavy with G233A, W236L, T238N, Q313R, P345R, D415R
# light: B1 light
# notes: MY201 with Q311R/P343R/D413R; also called MS103205H795-PK56; M103205H795-MY56
# B8: M103205H795-MY526 / M103202L889-SK1 (antibody, human IgG1, kappa, name in EU numbering)
# heavy: B1 heavy with G233T, W236L, S241V, Q297L
# light: B1 light
# B9: M103205H795-MY339 / M103202L889-SK1 (antibody, human IgG1, kappa, name in EU numbering)
# heavy: B1 heavy with G233A, W236L, T238L, K328T, P398K
# light: B1 light
# Key:
# [1] = target: T1, cynomolgus monkey FcγRIIIaS …; assay: SPR, KD(SG1)/KD(variant)
# [2] = target: T2, human FcγRIIaH extracellular domain …; assay: SPR, KD(SG1)/KD(variant)
# [3] = target: T3, cynomolgus monkey FcγRIIb extracellular …; assay: SPR (Biacore), KD of SG1 divided by KD of variant
# [4] = target: T4, human FcγRIIaH extracellular domain …; assay: SPR (Biacore), KD of SG1 divided by KD of variant
# [5] = target: T5, human FcγRIIaR extracellular domain …; assay: SPR (Biacore), KD of SG1 divided by KD of variant
# [6] = target: T6, human FcγRIIb extracellular domain with …; assay: SPR (Biacore), KD of SG1 divided by KD of variant
# [7] = target: T7, cynomolgus monkey FcγRIIa2 …; assay: SPR (Biacore), antibody captured, FcgR as analyte
# [8] = target: T4, human FcγRIIaH extracellular domain …; assay: SPR (Biacore), antibody captured, FcgR as analyte
# [9] = target: T8, cynomolgus monkey FcγRIIa3 …; assay: SPR, KD(SG1)/KD(variant)
# Protocol: (§1) The kinetic analysis of interactions between these antibodies and FcγR was carried out using BIACORE® T200 or BIACORE® 4000 (GE Healthcare). HBS-EP+ (GE Healthcare) was used as the running buffer, and the measurement temperature was set to 25° C. […] After the measurement, the antibody captured on the chip was washed off by allowing reaction with 10 mM glycine-HCl, pH1.5 and 25 mM NaOH so that the chip was regenerated and used repeatedly. The sensorgrams obtained as measurement results were analyzed by the 1:1 Langmuir binding model using the BIACORE® Evaluation Software to calculate the binding rate constant ka (L/mol/s) and dissociation rate constant kd (1/s), and the dissociation constant KD (mol/L) was calculated from these values. […] Regarding such interactions, KD values were calculated using the following 1:1 binding model described in BIACORE® T100 Software Handbook BR1006-48 Edition AE.
# [10] = target: T9, cynomolgus monkey FcγRIIb extracellular …; assay: SPR, KD(SG1)/KD(variant)
# Protocol: as §1
# [11] = target: T1, cynomolgus monkey FcγRIIIaS …; assay: SPR, KD(SG1)/KD(variant)
# Protocol: as §1
# [12] = target: T1, cynomolgus monkey FcγRIIIaS …; assay: SPR, antibody captured, FcγR analyte
# [13] = target: T8, cynomolgus monkey FcγRIIa3 …; assay: SPR, KD(SG1)/KD(variant)
# Protocol: as §1
# [14] = target: T16, human FcγRIIIaV extracellular domain, His-tagged (human, UniProt P08637 17-208); assay: SPR (BIACORE), antibody captured on chip, FcγR as analyte, 25 C; KD of SG1 divided by KD of the variant
# T16 construct: also called human FcγRIIIa (V158 allotype); FcgRIIIaV; not shown: His-tag added to the C-terminus
# Protocol: as §1
# [15] = target: T10, human FcγRIIaH extracellular domain, …; assay: as above
# Protocol: as §1
# [16] = target: T7, cynomolgus monkey FcγRIIa2 …; assay: SPR (Biacore), KD of SG1 divided by KD of variant
# [17] = target: T6, human FcγRIIb extracellular domain with …; assay: SPR (Biacore), antibody captured, FcgR as analyte
# [18] = target: T11, cynomolgus monkey FcγRIIa1 …; assay: SPR, KD(SG1)/KD(variant)
# Protocol: as §1
# [19] = target: T12, cynomolgus monkey FcγRIIa2 …; assay: SPR, KD(SG1)/KD(variant)
# Protocol: as §1
# [20] = target: T8, cynomolgus monkey FcγRIIa3 …; assay: SPR, antibody captured, FcγR analyte
# [21] = target: T9, cynomolgus monkey FcγRIIb extracellular …; assay: SPR, antibody captured, FcγR analyte
# [22] = target: T13, cynomolgus monkey FcγRIIa1 …; assay: SPR (Biacore), antibody captured, FcgR as analyte
# [23] = target: T14, cynomolgus monkey FcγRIIIaS …; assay: SPR (Biacore), antibody captured, FcgR as analyte
# [24] = target: T15, cynomolgus monkey FcγRIIa3 …; assay: SPR (Biacore), antibody captured, FcgR as analyte
# [25] = target: T5, human FcγRIIaR extracellular domain …; assay: SPR (Biacore), antibody captured, FcgR as analyte
# T16 sequence (P08637 17-208 F176V): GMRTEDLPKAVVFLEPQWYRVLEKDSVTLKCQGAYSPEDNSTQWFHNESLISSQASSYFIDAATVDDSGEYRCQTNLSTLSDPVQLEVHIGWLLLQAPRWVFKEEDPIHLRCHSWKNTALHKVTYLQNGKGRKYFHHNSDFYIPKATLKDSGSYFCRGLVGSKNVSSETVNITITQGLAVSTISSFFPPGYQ
binder,measurement,setting,value
B1,KD fold (SG1 = 1),[1],0.17 fold
same,KD fold (SG1 = 1),[2],1.8 fold
B2,KD fold (SG1 = 1),[3],2.7 fold
same,KD fold (SG1 = 1),[4],2.9 fold
same,KD fold (SG1 = 1),[5],5.5 fold
same,KD fold (SG1 = 1),[6],2.9 fold
same,Kd,[7],1900 nM
same,Kd,[8],240 nM
B3,KD fold (SG1 = 1),[9],4.5 fold
same,KD fold (SG1 = 1),[10],5 fold
same,KD fold (SG1 = 1),[11],0.08 fold
same,Kd,[12],3700 nM
B4,KD fold (SG1 = 1),[13],5.2 fold
B5,KD fold for humanFcgRs (SG1 = 1),[14],0.24 fold
same,KD fold for humanFcgRs (SG1 = 1),[15],9.7 fold
B6,KD fold (SG1 = 1),[16],3.5 fold
same,Kd,[17],1200 nM
B7,KD fold (SG1 = 1),[18],2.5 fold
same,KD fold (SG1 = 1),[19],3.9 fold
same,KD fold (SG1 = 1),[9],2.5 fold
same,KD fold (SG1 = 1),[11],0.08 fold
same,Kd,[20],3500 nM
same,Kd,[21],550 nM
same,Kd,[12],4400 nM
B8,Kd,[22],1300 nM
same,Kd,[23],1600 nM
B9,KD fold (SG1 = 1),[6],1.6 fold
same,Kd,[24],9800 nM
same,Kd,[25],630 nM
